Laboratory results from patent US8815529B2, “Sulfotransferase assay” (Research & Diagnostics Systems, Inc., priority 2011, dated 2014).

Columns and labels:
Type in all cases: biochemical
[1] = SULT1A1 enzyme dose curve, phosphatase-coupled sulfotransferase assay; conditions: for rate of phosphate release: 0.25 mM PAPS, 0.25 mM pNP
Method: (§1) In the following examples, the gPAPP used was recombinant mouse gPAPP expressed in CHO cells as an N-terminal His-tagged recombinant protein containing amino acids from E51 to K356, created by R & D Systems. The sequence was based on accession number NP 808398 from the National Center for Biotechnology Information. The chondroitin sulfate (CS) and p-nitrophenol (pNP) were obtained from Sigma Aldrich. The PAPS was prepared by R & D Systems using recombinant S. cerevisiae ATP sulurylase and P. chrysogenum APS kinase. The APS kinase was also prepared by R & D Systems. Recombinant human SULT1A1, CHST3, CD73, TNAP and Malachite Green Phosphate Detection Kit were from R & D Systems. Protein concentrations were quantified using the Bradford assay as described by Bradford, M. M., A rapid and sensitive method for the quantitation of microgram quantities of protein utilizing the principle of protein-dye binding. Anal Biochem. 1976. Vol 72, Page 248-254, the relevant portions of which are hereby incorporated by reference. Phosphate levels were determined using the Malachite Green Phosphate Detection Kit available from R & D Systems, according to the package instructions. All examples were performed in a buffer of 25 mM Tris at pH 7.5.
A series of reactions was performed by combining various amounts of SULT1A1 with 0.25 mM PAPS and 0.25 mM pNP and with either 1 μg gPAPP alone, or both 1 μg gPAPP and 0.1 μg CD73 in 50 μL of Tris buffer containing 10 mM of MgCl2 at pH 7.5. […] Since gPAPP and CD73 together release two equivalents of phosphate from each PAP, the specific activity of SULT1A1 was averaged to 40.0±1.9 pmol/min/μg. This specific activity is consistent with the known results obtained using radioisotope assays.

[2] = CHST3 enzyme dose curve, gPAPP-coupled assay; conditions: 10 mg/ml CS, 0.5 mM PAPS, 1 μg gPAPP
Method: as §1, with “Vol 72, Page 248-254, the relevant portions of which are hereby incorporated by reference.” left out, “All examples were performed in a buffer of 25 mM Tris at pH 7.5.” left out
First, the optimal concentration for CS was visually determined to be >5 mg/ml and the optimal concentration for PAPS was visually determined to be about 0.5 mM using FIGS. 10A and 10B by finding the substrate concentration corresponding to the highest point in the curves. […]

[3] = gPAPP activity: Mg2+ and pH dependence; conditions: 0.025 μg gPAPP, 25 nmol PAP
Method: as §1, with “Vol 72, Page 248-254, the relevant portions of which are hereby incorporated by reference.” left out, “All examples were performed in a buffer of 25 mM Tris at pH 7.5.” left out
First, the activity of gPAPP in the presence of Mg^2+ was tested by combining 0.025 μg gPAPP, 25 nmol PAP and increasing amounts of Mg^2+ in 50 μL of assay buffer of 25 mM Tris at pH 7.5. […] In a second experiment, the activity of gPAPP was evaluated at various pH levels. […]

[4] = Coupling capacity of gPAPP; conditions: 10 mM Mg2+, pH 7.5
Method: as §1, with “Vol 72, Page 248-254, the relevant portions of which are hereby incorporated by reference.” left out, “All examples were performed in a buffer of 25 mM Tris at pH 7.5.” left out
In this example, the coupling capacity of gPAPP was determined. […] The coupling capacity of gPAPP was determined by combining 1 μg gPAPP with increasing amounts of PAP, in the presence or absence of 0.5 mM PAPS in 50 μL assay buffer containing 10 mM Mg^2+ at pH 7.5 for either 20 or 40 minutes. […]

B1: SULT1A1: recombinant human sulfotransferase SULT1A1 from R & D Systems (protein, UniProt P50225 1-295, looked up)
Sulfotransferase 1A1: MELIQDTSRPPLEYVKGVPLIKYFAEALGPLQSFQARPDDLLISTYPKSGTTWVSQILDMIYQGGDLEKCHRAPIFMRVPFLEFKAPGIPSGMETLKDTPAPRLLKTHLPLALLPQTLLDQKVKVVYVARNAKDVAVSYYHFYHMAKVHPEPGTWDSFLEKFMVGEVSYGSWYQHVQEWWELSRTHPVLYLFYEDMKENPKREIQKILEFVGRSLPEETVDFVVQHTSFKEMKKNPMTNYTTVPQEFMDHSISPFMRKGMAGDWKTTFTVAQNERFDADYAEKMAGCSLSFRSEL
specific activity ([1]; averaged over gPAPP alone and gPAPP plus CD73): 40.0 ± 1.9 pmol/min/µg | rate of phosphate release ([1]; coupled to both gPAPP and CD73): 83.7 pmol/min/µg | rate of phosphate release ([1]; coupled to gPAPP alone): 38.1 pmol/min/µg

B2: CHST3: recombinant human carbohydrate sulfotransferase 3 from R & D Systems (protein, UniProt Q7LGC8 1-479, looked up)
Carbohydrate sulfotransferase …: MEKGLTLPQDCRDFVHSLKMRSKYALFLVFVVIVFVFIEKENKIISRVSDKLKQIPQALADANSTDPALILAENASLLSLSELDSAFSQLQSRLRNLSLQLGVEPAMEAAGEEEEEQRKEEEPPRPAVAGPRRHVLLMATTRTGSSFVGEFFNQQGNIFYLFEPLWHIERTVSFEPGGANAAGSALVYRDVLKQLFLCDLYVLEHFITPLPEDHLTQFMFRRGSSRSLCEDPVCTPFVKKVFEKYHCKNRRCGPLNVTLAAEACRRKEHMALKAVRIRQLEFLQPLAEDPRLDLRVIQLVRDPRAVLASRMVAFAGKYKTWKKWLDDEGQDGLREEEVQRLRGNCESIRLSAELGLRQPAWLRGRYMLVRYEDVARGPLQKAREMYRFAGIPLTPQVEDWIQKNTQAAHDGSGIYSTQKNSSEQFEKWRFSMPFKLAQVVQAACGPAMRLFGYKLARDAAALTNRSVSLLEERGTFWVT
specific activity [2]: 1110 pmol/min/µg

B3: gPAPP: recombinant mouse gPAPP expressed in CHO cells, N-terminal His-tagged, amino acids E51 to K356 (protein, UniProt Q80V26 51-356, looked up, fragment)
chain: EVASDGGTVDLREMLAVAVLAAERGGDEVRRVRESNVLHEKSKGKTREGADDKMTSGDVLSNRKMFYLLKTAFPNVQINTEEHVDASDKEVIVWNRKIPEDILKEIAAPKEVPAESVTVWIDPLDATQEYTEDLRKYVTTMVCVAVNGKPVLGVIHKPFSEYTAWAMVDGGSNVKARSSYNEKTPKIIVSRSHAGMVKQVALQTFGNQTSIIPAGGAGYKVLALLDVPDMTQEKADLYIHVTYIKKWDICAGNAILKALGGHMTTLNGEEISYTGSDGIEGGLLASIRMNHQALVRKLPDLEKSGH
modifications: N-terminal His tag
notes: recombinant mouse gPAPP expressed in CHO cells, N-terminal His-tagged, amino acids E51 to K356
Mg2+ concentration at which maximum activity was achieved ([3]; 25 mM Tris pH 7.5): greater than 10 mM | pH of optimal activity ([3]; 10 mM Mg2+): ~7.5 | coupling capacity (PAP completely hydrolysed by 1 μg gPAPP) ([4]; 20 minute reaction): 8 nmol | coupling capacity (PAP completely hydrolysed by 1 μg gPAPP) ([4]; 40 minute reaction): 15 nmol
